Experimental data taken from US20230382974A1 (HANMI PHARM, published 2023).
Bridges are numbered along the chain shown (N, C = ends). Where no end group is shown, it is not given here. [ ]: non-standard residue; d: D form. Aib = CC(C)(N)C(=O)O

T1: human GIP receptor (human, UniProt P48546 22-466)
T1 sequence (looked up): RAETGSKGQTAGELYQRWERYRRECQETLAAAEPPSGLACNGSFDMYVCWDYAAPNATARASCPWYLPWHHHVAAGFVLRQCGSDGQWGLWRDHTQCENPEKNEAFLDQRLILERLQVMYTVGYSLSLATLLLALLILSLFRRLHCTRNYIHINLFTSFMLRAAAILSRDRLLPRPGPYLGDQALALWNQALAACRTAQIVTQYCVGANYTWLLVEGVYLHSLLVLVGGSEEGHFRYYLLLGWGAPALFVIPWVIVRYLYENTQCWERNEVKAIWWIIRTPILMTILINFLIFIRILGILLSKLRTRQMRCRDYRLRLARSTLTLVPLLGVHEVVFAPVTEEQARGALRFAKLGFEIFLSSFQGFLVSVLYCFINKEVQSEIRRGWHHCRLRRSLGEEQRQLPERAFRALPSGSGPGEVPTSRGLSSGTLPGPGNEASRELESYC


Key:
Experiment in all cases: cell-based or functional assay
human GLP-1 receptor = human GLP-1 receptor (human, UniProt P43220 24-463)
human glucagon receptor = human glucagon receptor (human, UniProt P47871 26-477)
human GIP receptor = target: T1, human GIP receptor

human glucagon receptor, sequence (P47871 26-477): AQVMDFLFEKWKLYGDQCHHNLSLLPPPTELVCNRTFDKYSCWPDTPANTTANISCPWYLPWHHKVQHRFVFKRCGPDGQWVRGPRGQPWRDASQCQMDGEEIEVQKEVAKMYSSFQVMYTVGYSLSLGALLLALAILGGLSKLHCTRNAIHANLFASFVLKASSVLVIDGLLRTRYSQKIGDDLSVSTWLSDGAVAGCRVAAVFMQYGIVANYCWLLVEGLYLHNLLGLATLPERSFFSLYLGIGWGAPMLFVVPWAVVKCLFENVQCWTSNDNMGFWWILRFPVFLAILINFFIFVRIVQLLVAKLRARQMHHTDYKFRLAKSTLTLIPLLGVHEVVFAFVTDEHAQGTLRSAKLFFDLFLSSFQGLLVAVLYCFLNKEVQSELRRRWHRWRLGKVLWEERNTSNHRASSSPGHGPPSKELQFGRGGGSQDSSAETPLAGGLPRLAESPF

| Binder | In vitro activity relative to native peptide (%), vs. GLP-1 (cAMP accumulation EC50, LANCE cAMP kit, CHO cells) (human GLP-1 receptor) [%] | In vitro activity relative to native peptide (%), vs. Glucagon (cAMP accumulation EC50, LANCE cAMP kit, CHO cells) (human glucagon receptor) [%] | In vitro activity relative to native peptide (%), vs. GIP (cAMP accumulation EC50, LANCE cAMP kit, CHO cells) (human GIP receptor) [%] |
| --- | --- | --- | --- |
| Y[Aib]EGTFTSDYSIQLDKQAA[Aib]AFVQWLIAGGPSSGAPPPSK-NH2 [triple agonist peptide of SEQ ID NO: 12] | 87.2 | 6.6 | 52.8 |
| Y[Aib]QGTFTSDYSKYLDEKRAKEFVQWLLDQHPSSGQPPPSC-NH2 (bridge 16-20) [triple agonist peptide of SEQ ID NO: 5] | 49.1 | 826 | 35.5 |
| Y[Aib]QGTFTSDYSKYLDERASKDFVQWLLDHHPSSGQPPPSC-NH2 (bridge 16-20) [triple agonist peptide of SEQ ID NO: 10] | 65.3 | 19 | 23.4 |
| Y[Aib]QGTFTSDYSIYLDEKAAKEFVQWLLDQHPSSGQPPPSC-NH2 (bridge 16-20) [triple agonist peptide of SEQ ID NO: 11] | 77.6 | 10.2 | 33.7 |
| Y[Aib]QGTFTSDYSIYLDEQRAKEFIAWLLAHHPSSGQPPPSC-NH2 (bridge 16-20) [triple agonist peptide of SEQ ID NO: 4] | 11.2 | 59.9 | 124 |
| Y[Aib]QGTFTSDYSKYLDEQAAKEFVQWLLDHHPSSGQPPPSC-NH2 (bridge 16-20) [triple agonist peptide of SEQ ID NO: 2] | 91.4 | 146 | 150 |
| Y[Aib]QGTFTSDYSKALDEKAAKDFVQWLLDQHPSSGQPPPSC-NH2 (bridge 16-20) [triple agonist peptide of SEQ ID NO: 6] | 89.5 | 78.1 | 513 |
| Y[Aib]QGTFTSDYSKYLDEQRAKEFIAWLLDHHPSSGQPPPSC-NH2 (bridge 16-20) [triple agonist peptide of SEQ ID NO: 3] | 17.4 | 577 | 48.4 |
| Y[Aib]QGTFTSDCSKYLDEKAAKEFVQWLLDHHPSSGQPPPS-NH2 (bridge 16-20) [triple agonist peptide of SEQ ID NO: 8] | 42.6 | 5.52 | 6.19 |
| Y[Aib]EGTFTSDYSEYMEKEAVREFICWLVKGGPSSGAPPPS-NH2 (bridge (positions not given here); not fully specified; also: ring formation between underlined and bold residues, places not given here) [triple agonist peptide of SEQ ID NO: 9] | 37 | 26.6 | 11.7 |
| Y[Aib]QGTFTSDYSKYLDEQRAKEFVQWLLDHHPSSGQPPPSC-NH2 (bridge 16-20) [triple agonist peptide of SEQ ID NO: 1] | 16.6 | 443 | 51.5 |
| Y[Aib]QGTFTSDYSKALDEKAAKDFVQWLKDQHPSSGQPPPSC-NH2 (bridge 16-20) [triple agonist peptide of SEQ ID NO: 7] | 97.8 | 3.62 | 33.9 |
